Data set [1] in a line: Osteogenic activity of the peptide fragment. The source says: A preferred osteoactivin active peptide fragment for use in the present invention is the amino acid sequence LAPFSRGDREKDPLLQDK (SEQ ID NO: 1). […] Accordingly, in some embodiments, shorter sections of SEQ ID NO: 1 consisting of 6 or 12 amino acids can be used.
A short description of data set [2]: CBC, CMP, urinalysis and histological sampling of OA-treated sheep. The class given is in vivo, sheep (Ovis aries). The source says:
Approval of the Northeast Ohio Medical University Institutional Animal Care and Use Committee (IACUC) was obtained prior to the start of this study. Six (6) male sheep (Ovis aries) between ages 2-3 years old were used, each with a critical size defect (25 mm in depth×11 mm in diameter) drilled into bilateral hind limb distal femurs. The surgical protocol utilized was based on previous work done to develop a model for cancellous bone healing (Malhotra et al, Front Surg. 2014 Sep. 8; 1:37). This method allowed for high quality standardization and sterility processes across each sheep. […] Martini et al., Comp Med. 2001 August; 51(4):292-9; Pearce et al., Eur Cell Mater. 2007 Mar. 2; 13:1-10. The procedures were performed by an orthopedic surgeon. Once under appropriate anesthesia, one femur defect (left hindlimb) was drilled with a cannulated acorn drill (Stryker) and packed with an PBS absorbable collagen sponge (Medline Industries) without OA protein and thus functioned as a control, while the other defect (right hindlimb) was filled with either a low dose (10 μg), or high dose (50 μg) recombinant OA-soaked collagen sponge (R&D Systems). Three sheep received the high dose OA while two received the low dose OA, and one was left as a control. The animals were allowed to recover and then terminated after a period of 10 weeks. […]

A further data set deals with bone defect. As to conditions: at 4 weeks; none of the control animals showed complete bone fill; cited from earlier work.
Another data set addresses T1, CD44 (Mus musculus, UniProt P15379).
T1 construct: biotinylated rOA added onto MC3T3-E1 cells; endogenous in cells; host or cells: MC3T3-E1
T1 sequence (P15379 23-778): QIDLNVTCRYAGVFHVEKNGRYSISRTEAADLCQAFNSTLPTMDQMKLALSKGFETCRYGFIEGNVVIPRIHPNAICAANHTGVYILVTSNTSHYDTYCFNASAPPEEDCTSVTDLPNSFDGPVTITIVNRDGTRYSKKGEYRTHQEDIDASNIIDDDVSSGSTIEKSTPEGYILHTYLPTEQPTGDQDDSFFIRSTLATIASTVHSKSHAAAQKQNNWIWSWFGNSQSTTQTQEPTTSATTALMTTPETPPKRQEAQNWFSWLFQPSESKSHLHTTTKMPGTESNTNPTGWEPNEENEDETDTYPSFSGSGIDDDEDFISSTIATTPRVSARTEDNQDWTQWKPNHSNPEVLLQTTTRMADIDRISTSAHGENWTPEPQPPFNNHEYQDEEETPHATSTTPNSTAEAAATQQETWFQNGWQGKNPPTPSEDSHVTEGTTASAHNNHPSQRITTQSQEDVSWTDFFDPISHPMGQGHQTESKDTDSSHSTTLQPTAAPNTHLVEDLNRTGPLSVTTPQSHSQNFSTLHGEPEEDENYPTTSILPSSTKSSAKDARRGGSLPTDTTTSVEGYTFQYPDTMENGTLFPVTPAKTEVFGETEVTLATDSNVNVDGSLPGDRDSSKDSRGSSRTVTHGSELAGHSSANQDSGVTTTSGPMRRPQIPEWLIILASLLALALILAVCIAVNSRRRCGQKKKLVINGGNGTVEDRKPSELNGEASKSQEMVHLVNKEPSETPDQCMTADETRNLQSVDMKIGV
Nature of the data set: Binding of biotinylated rOA on MC3T3-E1 cells (immunofluorescence, immunoprecipitation, blot for CD44). The source says: FIG. 3(A-C) provides images showing osteoactivin binds to CD44 in bone cells. (A) Silver staining and mass spectroscopy analysis of biotinylated rOA added onto MC3T3-E1 cells.

The test system of data set [3] is critical size defects in bilateral distal femurs. Nature of the data set: Sheep model for cancellous bone healing (critical size defect in distal femur, OA-soaked collagen sponge). The class given is in vivo, sheep (Ovis aries). As to conditions: for radiographic analysis: regeneration of bone at the defect site: vs control femurs. The source says:
Thus, the sheep model provides a way to study the effect of OA on osteogenesis by inducing critical size defects into the long bones of the animals. […] Approval of the Northeast Ohio Medical University Institutional Animal Care and Use Committee (IACUC) was obtained prior to the start of this study. Six (6) male sheep (Ovis aries) between ages 2-3 years old were used, each with a critical size defect (25 mm in depth×11 mm in diameter) drilled into bilateral hind limb distal femurs. The surgical protocol utilized was based on previous work done to develop a model for cancellous bone healing (Malhotra et al, Front Surg. 2014 Sep. 8; 1:37). This method allowed for high quality standardization and sterility processes across each sheep. […] Martini et al., Comp Med. 2001 August; 51(4):292-9; Pearce et al., Eur Cell Mater. 2007 Mar. 2; 13:1-10. The procedures were performed by an orthopedic surgeon. Once under appropriate anesthesia, one femur defect (left hindlimb) was drilled with a cannulated acorn drill (Stryker) and packed with an PBS absorbable collagen sponge (Medline Industries) without OA protein and thus functioned as a control, while the other defect (right hindlimb) was filled with either a low dose (10 μg), or high dose (50 μg) recombinant OA-soaked collagen sponge (R&D Systems). Three sheep received the high dose OA while two received the low dose OA, and one was left as a control. The animals were allowed to recover and then terminated after a period of 10 weeks. The femurs were harvested for x-ray (General Electric) and μCT (Scanco) imaging. Blood and urine samples were collected for CBC, CMP and urinalysis (ANTECH Diagnostics). Tissue biopsies were taken from heart, lung, liver, spleen, kidney, thyroid gland, adrenal gland, and skeletal muscle for RNA and histological analyses during post-mortem dissection.

The next data set has as its system bone segmental defect. Nature of the data set: Local delivery in a model of bone segmental defect. The class given is in vivo. The source says: It is synthesized and secreted by osteoblasts where it acts as signaling molecule to promote osteoblast differentiation and function. […] Research has also shown that OA is involved in mouse and human stem cells differentiation to bone cells, and that OA is responsible to transdifferentiate muscle cells to bone forming osteoblasts. The receptor for OA in bone and mesenchymal stem cells is CD44. OA induces differentiation of mesenchymal stem cells to bone cells through CD44.

On to “LAPFSRGDREKDPLLQDK (listed as Homo sapiens) [SEQ ID NO: 1]”, for which, in data set [1], the osteogenic activity result was “demonstrated the osteogenic activity”.

B1: OA: 572 amino acid transmembrane glycoprotein encoded by the GPNMB gene; recombinant protein (R&D Systems) soaked into collagen sponge (protein, UniProt Q14956 23-572, looked up)
Transmembrane glycoprotein NMB: KRFHDVLGNERPSAYMREHNQLNGWSSDENDWNEKLYPVWKRGDMRWKNSWKGGRVQAVLTSDSPALVGSNITFAVNLIFPRCQKEDANGNIVYEKNCRNEAGLSADPYVYNWTAWSEDSDGENGTGQSHHNVFPDGKPFPHHPGWRRWNFIYVFHTLGQYFQKLGRCSVRVSVNTANVTLGPQLMEVTVYRRHGRAYVPIAQVKDVYVVTDQIPVFVTMFQKNDRNSSDETFLKDLPIMFDVLIHDPSHFLNYSTINYKWSFGDNTGLFVSTNHTVNHTYVLNGTFSLNLTVKAAAPGPCPPPPPPPRPSKPTPSLATTLKSYDSNTPGPAGDNPLELSRIPDENCQINRYGHFQATITIVEGILEVNIIQMTDVLMPVPWPESSLIDFVVTCQGSIPTEVCTIISDPTCEITQNTVCSPVDVDEMCLLTVRRTFNGSGTYCVNLTLGDDTSLALTSTLISVPDRDPASPLRMANSALISVGCLAIFVTVISLLVYKKHKEYNPIENSPGNVVRSKGLSVFLNRAKAVFFPGNQEKDPLLKNQEFKGVS
On to B1, for which the “adverse systemic effects per laboratory studies or histological sampling” value in data set [2] (administered locally, sheep) is listed as “no apparent adverse systemic effects”. The “CBC, CMP and urinalysis” value in data set [2] (control vs OA-treated sheep) was “no apparent abnormalities”. In addition, the “animals showing complete bone fill” value in the data set on bone defect is 70%. Further, in the data set with CD44 (MC3T3-E1 cells), the “Immunoprecipitation of biotinylated rOA pulled out with streptavidin beads and blotted for CD44” value is on record as “OA-CD44 interaction”. The “Immunofluorescence of CD44 and OA” value with CD44 (bone cells) is given as “colocalization along the cell membrane”. Besides, the “radiographs and μCT of the femur defect site” value in data set [3] (50 μg OA, after 10 weeks, compared to control (FIG. 2)) is recorded as “regenerated bone”. Besides, the “bone healing and regeneration (radiographic, μCT imaging and histological analysis)” value in data set [3] (OA-soaked absorbable collagen sponge vs defect only or collagen sponge alone, n=6) is “significantly accelerated bone healing and regeneration”. The “Micro-CT bone volume and density of the regenerated area” value in data set [3] (OA-treated defect sites vs control, 10 weeks) was “significant increase”. The “radiographic analysis: regeneration of bone at the defect site” value in data set [3] (high dose (50 μg) recombinant OA-soaked collagen sponge, 10 weeks) is reported as “complete regeneration of bone at the defect site”; in data set [3] (low dose (10 μg) recombinant OA-soaked collagen sponge, 10 weeks), “complete regeneration of bone at the defect site”. The bone regeneration entry in the data set with bone segmental defect is “stimulates bone regeneration”.
